Data: patent publication US20160272683A1 (Novo Nordisk, published 2016)
Numbered stars: 1 amine (or outer) side, 2 acyl side, 3 side chain; on linkers, the order of the positions; unused ones are H or OH. * marks the point of attachment. C20 diacid = O=C(O)CCCCCCCCCCCCCCCCCCC(=O)*; C18 diacid = O=C(O)CCCCCCCCCCCCCCCCC(=O)*; γGlu = O=C(O)[C@H](CCC(=O)[*:2])N[*:1]

Columns and labels:
[1] = target: T1, human amylin 3(a) receptor (human calcitonin receptor co-expressed with RAMP-3) on BHK570/CRE-luc cells (human, UniProt P30988 25-474; O60896 24-148); experiment: cell-based or functional assay
T1 sequence (looked up) 1: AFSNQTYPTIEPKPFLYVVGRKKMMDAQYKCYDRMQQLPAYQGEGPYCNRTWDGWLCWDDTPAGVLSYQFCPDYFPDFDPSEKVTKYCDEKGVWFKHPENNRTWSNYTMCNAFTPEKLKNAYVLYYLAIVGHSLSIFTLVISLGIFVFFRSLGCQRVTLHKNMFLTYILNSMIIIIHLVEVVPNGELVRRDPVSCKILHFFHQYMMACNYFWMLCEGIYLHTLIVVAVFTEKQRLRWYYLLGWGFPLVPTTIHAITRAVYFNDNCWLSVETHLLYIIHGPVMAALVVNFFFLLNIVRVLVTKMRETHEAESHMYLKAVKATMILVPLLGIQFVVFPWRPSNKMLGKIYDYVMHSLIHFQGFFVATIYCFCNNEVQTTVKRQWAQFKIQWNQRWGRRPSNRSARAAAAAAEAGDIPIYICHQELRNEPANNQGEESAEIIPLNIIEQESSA
T1 sequence (looked up) 2: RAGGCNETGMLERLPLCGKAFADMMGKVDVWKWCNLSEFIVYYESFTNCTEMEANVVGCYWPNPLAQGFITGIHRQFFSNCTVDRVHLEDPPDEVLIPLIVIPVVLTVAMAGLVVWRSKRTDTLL

[2] = target: T2, human calcitonin receptor on BHK570/CRE-luc cells (human, UniProt P30988 25-474); experiment: cell-based or functional assay
T2 sequence (looked up): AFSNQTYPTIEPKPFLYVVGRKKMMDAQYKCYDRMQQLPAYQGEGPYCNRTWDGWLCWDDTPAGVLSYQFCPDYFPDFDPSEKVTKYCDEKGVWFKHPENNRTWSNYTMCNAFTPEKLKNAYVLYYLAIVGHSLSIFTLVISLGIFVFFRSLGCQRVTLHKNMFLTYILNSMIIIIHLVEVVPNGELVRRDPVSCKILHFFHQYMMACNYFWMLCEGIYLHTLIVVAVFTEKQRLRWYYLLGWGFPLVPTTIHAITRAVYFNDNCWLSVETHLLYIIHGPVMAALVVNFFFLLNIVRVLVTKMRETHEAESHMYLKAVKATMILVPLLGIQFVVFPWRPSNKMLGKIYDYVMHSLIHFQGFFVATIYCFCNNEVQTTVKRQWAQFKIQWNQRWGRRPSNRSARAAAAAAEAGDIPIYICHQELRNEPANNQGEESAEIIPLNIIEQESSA

Binder | hAmylin-R funct. EC50 (pM), tested with HSA [1] [pM] | hCTR funct. EC50 (pM), tested with HSA [2] [pM]
{C20 diacid-γGlu}-ASELSTAALGKLSAELHELATYPKTETGSGSY-NH2 (SMILES CC(C)C[C@H](NC(=O)[C@H](C)NC(=O)[C@H](C)NC(=O)[C@@H](NC(=O)[C@H](CO)NC(=O)[C@H](CC(C)C)NC(=O)[C@H](CCC(=O)O)NC(=O)[C@H](CO)NC(=O)[C@H](C)NC(=O)CC[C@H](NC(=O)CCCCCCCCCCCCCCCCCCC(=O)O)C(=O)O)[C@@H](C)O)C(=O)NCC(=O)N[C@@H](CCCCN)C(=O)N[C@@H](CC(C)C)C(=O)N[C@@H](CO)C(=O)N[C@@H](C)C(=O)N[C@@H](CCC(=O)O)C(=O)N[C@@H](CC(C)C)C(=O)N[C@@H](Cc1c[nH]cn1)C(=O)N[C@@H](CCC(=O)O)C(=O)N[C@@H](CC(C)C)C(=O)N[C@@H](C)C(=O)N[C@H](C(=O)N[C@@H](Cc1ccc(O)cc1)C(=O)N1CCC[C@H]1C(=O)N[C@@H](CCCCN)C(=O)N[C@H](C(=O)N[C@@H](CCC(=O)O)C(=O)N[C@H](C(=O)NCC(=O)N[C@@H](CO)C(=O)NCC(=O)N[C@@H](CO)C(=O)N[C@@H](Cc1ccc(O)cc1)C(N)=O)[C@@H](C)O)[C@@H](C)O)[C@@H](C)O) [[N-terminal(C20 diacid-gGlu), des1, 12K, 23Y, 25K, 30S, 31G, 33Y]mimylin] | 93 | 73
{C20 diacid-γGlu}-ASELSTATLGRLSAELHELSTYPRTETGSGSY-NH2 (SMILES CC(C)C[C@H](NC(=O)[C@H](CCCNC(=N)N)NC(=O)CNC(=O)[C@H](CC(C)C)NC(=O)[C@@H](NC(=O)[C@H](C)NC(=O)[C@@H](NC(=O)[C@H](CO)NC(=O)[C@H](CC(C)C)NC(=O)[C@H](CCC(=O)O)NC(=O)[C@H](CO)NC(=O)[C@H](C)NC(=O)CC[C@H](NC(=O)CCCCCCCCCCCCCCCCCCC(=O)O)C(=O)O)[C@@H](C)O)[C@@H](C)O)C(=O)N[C@@H](CO)C(=O)N[C@@H](C)C(=O)N[C@@H](CCC(=O)O)C(=O)N[C@@H](CC(C)C)C(=O)N[C@@H](Cc1c[nH]cn1)C(=O)N[C@@H](CCC(=O)O)C(=O)N[C@@H](CC(C)C)C(=O)N[C@@H](CO)C(=O)N[C@H](C(=O)N[C@@H](Cc1ccc(O)cc1)C(=O)N1CCC[C@H]1C(=O)N[C@@H](CCCNC(=N)N)C(=O)N[C@H](C(=O)N[C@@H](CCC(=O)O)C(=O)N[C@H](C(=O)NCC(=O)N[C@@H](CO)C(=O)NCC(=O)N[C@@H](CO)C(=O)N[C@@H](Cc1ccc(O)cc1)C(N)=O)[C@@H](C)O)[C@@H](C)O)[C@@H](C)O) [[N-terminal(C20 diacid-gGlu), des1, 9T, 21S, 23Y, 30S, 31G, 33Y]mimylin] | 92 | 40
{C20 diacid-γGlu}-ASGLSTAVLGRLSAELHELATYPRTETGSGTY-NH2 (SMILES CC(C)C[C@H](NC(=O)CNC(=O)[C@H](CO)NC(=O)[C@H](C)NC(=O)CC[C@H](NC(=O)CCCCCCCCCCCCCCCCCCC(=O)O)C(=O)O)C(=O)N[C@@H](CO)C(=O)N[C@H](C(=O)N[C@@H](C)C(=O)N[C@H](C(=O)N[C@@H](CC(C)C)C(=O)NCC(=O)N[C@@H](CCCNC(=N)N)C(=O)N[C@@H](CC(C)C)C(=O)N[C@@H](CO)C(=O)N[C@@H](C)C(=O)N[C@@H](CCC(=O)O)C(=O)N[C@@H](CC(C)C)C(=O)N[C@@H](Cc1c[nH]cn1)C(=O)N[C@@H](CCC(=O)O)C(=O)N[C@@H](CC(C)C)C(=O)N[C@@H](C)C(=O)N[C@H](C(=O)N[C@@H](Cc1ccc(O)cc1)C(=O)N1CCC[C@H]1C(=O)N[C@@H](CCCNC(=N)N)C(=O)N[C@H](C(=O)N[C@@H](CCC(=O)O)C(=O)N[C@H](C(=O)NCC(=O)N[C@@H](CO)C(=O)NCC(=O)N[C@H](C(=O)N[C@@H](Cc1ccc(O)cc1)C(N)=O)[C@@H](C)O)[C@@H](C)O)[C@@H](C)O)[C@@H](C)O)C(C)C)[C@@H](C)O) [[N-terminal(C20 diacid-gGlu), des1, 4G, 9V, 23Y, 30S, 31G, 32T, 33Y]mimylin] | 122 | 53
{C20 diacid-γGlu}-EASGLSTAALGRLSQELHELQTYPRTETGSGTY-NH2 (SMILES CC(C)C[C@H](NC(=O)CNC(=O)[C@H](CO)NC(=O)[C@H](C)NC(=O)[C@H](CCC(=O)O)NC(=O)CC[C@H](NC(=O)CCCCCCCCCCCCCCCCCCC(=O)O)C(=O)O)C(=O)N[C@@H](CO)C(=O)N[C@H](C(=O)N[C@@H](C)C(=O)N[C@@H](C)C(=O)N[C@@H](CC(C)C)C(=O)NCC(=O)N[C@@H](CCCNC(=N)N)C(=O)N[C@@H](CC(C)C)C(=O)N[C@@H](CO)C(=O)N[C@@H](CCC(N)=O)C(=O)N[C@@H](CCC(=O)O)C(=O)N[C@@H](CC(C)C)C(=O)N[C@@H](Cc1c[nH]cn1)C(=O)N[C@@H](CCC(=O)O)C(=O)N[C@@H](CC(C)C)C(=O)N[C@@H](CCC(N)=O)C(=O)N[C@H](C(=O)N[C@@H](Cc1ccc(O)cc1)C(=O)N1CCC[C@H]1C(=O)N[C@@H](CCCNC(=N)N)C(=O)N[C@H](C(=O)N[C@@H](CCC(=O)O)C(=O)N[C@H](C(=O)NCC(=O)N[C@@H](CO)C(=O)NCC(=O)N[C@H](C(=O)N[C@@H](Cc1ccc(O)cc1)C(N)=O)[C@@H](C)O)[C@@H](C)O)[C@@H](C)O)[C@@H](C)O)[C@@H](C)O) [[N-terminal(C20 diacid-gGlu), 4G, 15Q, 21Q, 23Y, 30S, 31G, 32T, 33Y]mimylin] | 128 | 92
{C20 diacid-γGlu}-ASELSTASLGRLSAELHELSTYPRTETGSGSY-NH2 (SMILES CC(C)C[C@H](NC(=O)[C@H](CO)NC(=O)[C@H](C)NC(=O)[C@@H](NC(=O)[C@H](CO)NC(=O)[C@H](CC(C)C)NC(=O)[C@H](CCC(=O)O)NC(=O)[C@H](CO)NC(=O)[C@H](C)NC(=O)CC[C@H](NC(=O)CCCCCCCCCCCCCCCCCCC(=O)O)C(=O)O)[C@@H](C)O)C(=O)NCC(=O)N[C@@H](CCCNC(=N)N)C(=O)N[C@@H](CC(C)C)C(=O)N[C@@H](CO)C(=O)N[C@@H](C)C(=O)N[C@@H](CCC(=O)O)C(=O)N[C@@H](CC(C)C)C(=O)N[C@@H](Cc1c[nH]cn1)C(=O)N[C@@H](CCC(=O)O)C(=O)N[C@@H](CC(C)C)C(=O)N[C@@H](CO)C(=O)N[C@H](C(=O)N[C@@H](Cc1ccc(O)cc1)C(=O)N1CCC[C@H]1C(=O)N[C@@H](CCCNC(=N)N)C(=O)N[C@H](C(=O)N[C@@H](CCC(=O)O)C(=O)N[C@H](C(=O)NCC(=O)N[C@@H](CO)C(=O)NCC(=O)N[C@@H](CO)C(=O)N[C@@H](Cc1ccc(O)cc1)C(N)=O)[C@@H](C)O)[C@@H](C)O)[C@@H](C)O) [[N-terminal(C20 diacid-gGlu), des1, 9S, 21S, 23Y, 30S, 31G, 33Y]mimylin] | 143 | 108
{C18 diacid-γGlu}-ASEVSTAVVGRLSAELHEVATLPRTETGSGSP-NH2 (SMILES CC(C)C[C@H](NC(=O)[C@H](CCCNC(=N)N)NC(=O)CNC(=O)[C@@H](NC(=O)[C@@H](NC(=O)[C@H](C)NC(=O)[C@@H](NC(=O)[C@H](CO)NC(=O)[C@@H](NC(=O)[C@H](CCC(=O)O)NC(=O)[C@H](CO)NC(=O)[C@H](C)NC(=O)CC[C@H](NC(=O)CCCCCCCCCCCCCCCCC(=O)O)C(=O)O)C(C)C)[C@@H](C)O)C(C)C)C(C)C)C(=O)N[C@@H](CO)C(=O)N[C@@H](C)C(=O)N[C@@H](CCC(=O)O)C(=O)N[C@@H](CC(C)C)C(=O)N[C@@H](Cc1c[nH]cn1)C(=O)N[C@@H](CCC(=O)O)C(=O)N[C@H](C(=O)N[C@@H](C)C(=O)N[C@H](C(=O)N[C@@H](CC(C)C)C(=O)N1CCC[C@H]1C(=O)N[C@@H](CCCNC(=N)N)C(=O)N[C@H](C(=O)N[C@@H](CCC(=O)O)C(=O)N[C@H](C(=O)NCC(=O)N[C@@H](CO)C(=O)NCC(=O)N[C@@H](CO)C(=O)N1CCC[C@H]1C(N)=O)[C@@H](C)O)[C@@H](C)O)[C@@H](C)O)C(C)C) [[N-terminal(C18 diacid-gGlu), des1, 5V, 9V, 10V, 20V, 30S, 31G]mimylin] | 106 | 28
{C18 diacid-γGlu}-ASELTTAVLGRLEAELHELTTLPRTETGTGTP-NH2 [[N-terminal(C18 diacid-gGlu), des1, 6T, 9V, 14E, 21T, 30T, 31G, 32T]mimylin] | 157 | 31
{C18 diacid-γGlu}-ASELTTAVLGRLTAELHELETLPRTETGTGTP-NH2 (SMILES CC(C)C[C@H](NC(=O)[C@H](CCC(=O)O)NC(=O)[C@H](C)NC(=O)[C@@H](NC(=O)[C@H](CC(C)C)NC(=O)[C@H](CCCNC(=N)N)NC(=O)CNC(=O)[C@H](CC(C)C)NC(=O)[C@@H](NC(=O)[C@H](C)NC(=O)[C@@H](NC(=O)[C@@H](NC(=O)[C@H](CC(C)C)NC(=O)[C@H](CCC(=O)O)NC(=O)[C@H](CO)NC(=O)[C@H](C)NC(=O)CC[C@H](NC(=O)CCCCCCCCCCCCCCCCC(=O)O)C(=O)O)[C@@H](C)O)[C@@H](C)O)C(C)C)[C@@H](C)O)C(=O)N[C@@H](Cc1c[nH]cn1)C(=O)N[C@@H](CCC(=O)O)C(=O)N[C@@H](CC(C)C)C(=O)N[C@@H](CCC(=O)O)C(=O)N[C@H](C(=O)N[C@@H](CC(C)C)C(=O)N1CCC[C@H]1C(=O)N[C@@H](CCCNC(=N)N)C(=O)N[C@H](C(=O)N[C@@H](CCC(=O)O)C(=O)N[C@H](C(=O)NCC(=O)N[C@H](C(=O)NCC(=O)N[C@H](C(=O)N1CCC[C@H]1C(N)=O)[C@@H](C)O)[C@@H](C)O)[C@@H](C)O)[C@@H](C)O)[C@@H](C)O) [[N-terminal(C18 diacid-gGlu), des1, 6T, 9V, 14T, 21E, 30T, 31G, 32T]mimylin] | 179 | 22
